Assay results: patent publication US20030069395A1 (DYAX, published 2003)
Bridges are numbered along the chain shown (N, C = ends). Where no end group is shown, it is not given here. [ ]: non-standard residue; d: D form. fluorescein = fluorescein label; Ahx = NCCCCCC(=O)O

Assays:
[1] = biological target: T1, human serum albumin (HSA) (human, UniProt P02768 25-609); assay: fluorescence anisotropy, fluorescein-labelled peptide, PBS
T1 construct: also called caprylate-biotinylated-HSA
Experimental: (§1) Affinity determinations were made by first labeling polypeptides on the C-terminal end with NHS-fluorescein. Fluorescence anisotropy measurements were performed in 384-well microplates in a volume of 10 μl in binding buffer using a Tecan Polarion fluorescence polarization plate reader. The concentration of fluorescein labeled peptide was held constant (20 nM), and the concentration of HSA was varied. For pH 6.2, 7.1, and 7.4 binding conditions, a 3 mM phosphate, 0.01% Tween-20 buffer was used. For pH 9.1 binding conditions, a 3 mM sodium bicarbonate buffer, 0.01% Tween-20 nonionic detergent buffer was used. Once NaCl was added to any of these buffers, their pH was adjusted again to achieve the original pH. The binding mixtures were equilibrated for 10 minutes in the microplate at 30° C. prior to performing the measurement. The observed change in anisotropy was fit to the equation below via nonlinear regression to obtain the apparent KD. This equation assumes that the peptide and HSA form a reversible complex with 1:1 stoichiometry.
Selected HSA binding polypeptides from these additional library selections were synthesized, fluorescein-labeled as in Example 1, and tested to determine an apparent KD for HSA in PBS. The polypeptides were synthesized to include an acetylated N-terminal dipeptide and a C-terminal dipeptide corresponding to the constant flanking amino acids immediately adjacent the display peptide as expressed on phage in the respective phage display libraries. The polypeptides were also synthesized with a C-terminal -Gly-Gly-Gly-Lys (SEQ ID NO: 24). The terminal Lys residue was amidated.

[2] = biological target: T1, human serum albumin (HSA); assay: phage ELISA on immobilised caprylate-HSA, HRP anti-M13 antibody
Experimental: Phage were selected as described below from a pool of three phage libraries (TN6/6, TN10/9, TN12/1). Phage were tested for ability to bind to HSA an in ELISA format using caprylate-bound HSA, which had been passively immobilized on the surface of wells of a microtiter assay plate. Binding of phage to immobilized HSA was detected by adding HRP-conjugated anti-M13 antibody. Following addition of TMB substrate, the absorbance at 620 nm was read with an automated plate reader. Phage bound to HSA is shown by diagonal striped bars; control wells (no HSA) is shown by open bars.
For analysis of caprylate-HSA as a target, Immulon 2HB plates were prepared by the addition of 340 μl/well of caprylate-HSA at 5.6 μg/ml. The plates were incubated overnight at 4° C. The HSA-coated plates were then washed robotically with PBSCT six times (BioTek 404, BioTek Instruments). To account for plate binders, empty plates were also washed. An equal volume of each phage clone isolate was added to a plate well containing 70 μl PBSCT in both the target plate and the control plate. Plates were incubated for one hour at room temperature. The plates were washed seven times with PBSCT using the BioTek 404 apparatus. A 1:10,000 dilution of Pharmacia HRP-αM13 antibody conjugate in PBSCT was added to each well, at 100 μl/well. Plates were incubated for one hour. After incubation, plates were washed six times with PBSCT using the BioTek 404 apparatus. Following the wash, 100 μl of a 1:1 solution of the two-component TMB substrate solution was added to each well, and the plates incubated for 30 minutes. The plates were then read at 620 nm with an automatic BioTek plate reader.

[3] = biological target: T1, human serum albumin (HSA); assay: fluorescence anisotropy; pH 6.2, 0.14 M NaCl, no caprylate
Experimental: as §1

Binder	Kd [1] [µM]	binding result [2]	further results
Ac-GDNDGCTDTNWSWMFDCPPLDPGGGK(fluorescein)-NH2 (disulfide 6-17 (inferred)) [DX-1165, Ac-GDNDGCTDTNWSWMFDCPPLDPGGGK-NH2]	> 10	–	–
Ac-GDDSMCITWPFKRPWPCANDPGGGK(fluorescein)-NH2 (not fully specified (bridges); printed as Ac-GDDSMCITWPFKRPWPCANDPGGGK-NH2; cysteine pairing not given here) [DX-1163, Ac-GDDSMCITWPFKRPWPCANDPGGGK-NH2]	42	–	–
Ac-AGWTTCHIYDWFCSSSGTGGGK(fluorescein)-NH2 (not fully specified (bridges); printed as Ac-AGWTTCHIYDWFCSSSGTGGGK-NH2; cysteine pairing not given here) [DX-1175, Ac-AGWTTCHIYDWFCSSSGTGGGK-NH2]	30	–	–
NHGCWHFSCIWD (not fully specified (bridges); cysteine pairing not given here, Whole phage in the ELISA; not shown: protein III of M13 phage; the display peptide stands at its amino terminus) [phage isolate displaying NHGCWHFSCIWD (SEQ ID NO: 243)]	–	binds	–
VAWCTIFLCLDV (not fully specified (bridges); cysteine pairing not given here, Whole phage in the ELISA; the constant phage residues that flank the display peptide are not spelled out for the phage construct; not shown: protein III of M13 phage; the display peptide stands at its amino terminus) [phage isolate displaying VAWCTIFLCLDV (SEQ ID NO: 239)]	–	binds	–
DWDCVTRWANRDQQCWAL (not fully specified (bridges); cysteine pairing not given here, Whole phage in the ELISA; not shown: protein III of M13 phage; the display peptide stands at its amino terminus) [phage isolate displaying DWDCVTRWANRDQQCWAL (SEQ ID NO: 248)]	–	binds	–
Ac-AEGTGSVAWCTIFLCLDVAPEGGGK-NH2 (not fully specified (bridges); printed as Ac-AEGTGSVAWCTIFLCLDVAPEGGGK-NH2; also: C-terminal Lys: fluorescein or coupled to NHS-Sepharose, Putative disulfide between the two Cys) [DX-232, Ac-AEGTGSVAWCTIFLCLDVAPEGGGK-NH2]	–	–	Kd [3]: 0.5 µM
Ac-AEGTGSFKICDQWFCLMPAPE[Ahx]K(fluorescein)-NH2 (disulfide 10-15) [DX-295, Ac-AEGTGSFKICDQWFCLMPAPE-X-K-NH2]	–	–	Kd [3]: > 100 µM
ADFCEGKDMIDWVYCRLY (not fully specified (bridges); cysteine pairing not given here, Whole phage in the ELISA; not shown: protein III of M13 phage; the display peptide stands at its amino terminus) [phage isolate displaying ADFCEGKDMIDWVYCRLY (SEQ ID NO: 245)]	–	binds	–
HVGCNNALCMQY (not fully specified (bridges); cysteine pairing not given here, Whole phage in the ELISA; not shown: protein III of M13 phage; the display peptide stands at its amino terminus) [phage isolate displaying HVGCNNALCMQY (SEQ ID NO: 241)]	–	binds	–
Ac-AGKWYCAWDPLVCEIFGTGGGK(fluorescein)-NH2 (disulfide 6-13 (inferred)) [DX-1173, Ac-AGKWYCAWDPLVCEIFGTGGGK-NH2]	> 10	–	–
Ac-GDLRDCQTTWPFTMMQCPNNDPGGGK(fluorescein)-NH2 (not fully specified (bridges); printed as Ac-GDLRDCQTTWPFTMMQCPNNDPGGGK-NH2; cysteine pairing not given here) [DX-1002, Ac-GDLRDCQTTWPFTMMQCPNNDPGGGK-NH2]	4	–	–
FWFCDRIAWYPQHLCEFLD (not fully specified (bridges); cysteine pairing not given here, Whole phage in the ELISA; not shown: protein III of M13 phage; the display peptide stands at its amino terminus) [phage isolate displaying FWFCDRIAWYPQHLCEFLD (SEQ ID NO: 246)]	–	binds	–
RNMCKFSWIRSPAFCARADP (not fully specified (bridges); cysteine pairing not given here, Whole phage in the ELISA; not shown: protein III of M13 phage; the display peptide stands at its amino terminus) [phage isolate displaying RNMCKFSWIRSPAFCARADP (SEQ ID NO: 251)]	–	binds	–
Ac-AGLEYCFYQWWGCPHAGTGGGK(fluorescein)-NH2 (not fully specified (bridges); printed as Ac-AGLEYCFYQWWGCPHAGTGGGK-NH2; cysteine pairing not given here) [DX-1177, Ac-AGLEYCFYQWWGCPHAGTGGGK-NH2]	153	–	–
Ac-GDLRSCFTYYPFTTFSCSPADPGGGK(fluorescein)-NH2 (disulfide 6-17 (inferred)) [DX-1091, Ac-GDLRSCFTYYPFTTFSCSPADPGGGK-NH2]	> 10	–	–
DWQCVKDWANRRRGCMAD (not fully specified (bridges); cysteine pairing not given here, Whole phage in the ELISA; not shown: protein III of M13 phage; the display peptide stands at its amino terminus) [phage isolate displaying DWQCVKDWANRRRGCMAD (SEQ ID NO: 250)]	–	binds	–
Ac-GSRSFCMDWPNHRDCDYSAPGGGK(fluorescein)-NH2 (not fully specified (bridges); printed as Ac-GSRSFCMDWPNHRDCDYSAPGGGK-NH2; cysteine pairing not given here) [DX-1171, Ac-GSRSFCMDWPNHRDCDYSAPGGGK-NH2]	165	–	–
Ac-GDSPYCKIALFQHFEVCAADDPGGGK(fluorescein)-NH2 (disulfide 6-17 (inferred)) [DX-1167, Ac-GDSPYCKIALFQHFEVCAADDPGGGK-NH2]	> 10	–	–
Ac-AEGTGDDWDCVTDWANRHQHCWALDPE[Ahx]K(fluorescein)-NH2 (disulfide 10-21) [DX-317, Ac-AEGTGDDWDCVTDWANRHQHCWALDPE-X-K-NH2]	–	–	Kd [3]: > 200 µM
Ac-GSLWDCWLYDCEGNAPGGGK(fluorescein)-NH2 (disulfide 6-11 (inferred)) [DX-1093, Ac-GSLWDCWLYDCEGNAPGGGK-NH2]	> 10	–	–
Ac-AGYQFCTWDPIFCGWHGTGGGK(fluorescein)-NH2 (not fully specified (bridges); printed as Ac-AGYQFCTWDPIFCGWHGTGGGK-NH2; cysteine pairing not given here) [DX-1179, Ac-AGYQFCTWDPIFCGWHGTGGGK-NH2]	185	–	–
WKVCDHFFCLSP (not fully specified (bridges); cysteine pairing not given here, Whole phage in the ELISA; not shown: protein III of M13 phage; the display peptide stands at its amino terminus) [phage isolate displaying WKVCDHFFCLSP (SEQ ID NO: 242)]	–	binds	–
Ac-GDRNMCKFSWIRSPAFCARADPGGGK(fluorescein)-NH2 (disulfide 6-17 (inferred)) [DX-321 of Table 9, Ac-GDRNMCKFSWIRSPAFCARADPGGGK-NH2]	> 10	–	–
Ac-GDFSLCWIVDEDGTKWCLPDPGGGK(fluorescein)-NH2 (disulfide 6-17 (inferred)) [DX-997, Ac-GDFSLCWIVDEDGTKWCLPDPGGGK-NH2]	> 10	–	–
DWDCVTDWANRHQHCWAL (not fully specified (bridges); cysteine pairing not given here, Whole phage in the ELISA; not shown: protein III of M13 phage; the display peptide stands at its amino terminus) [phage isolate displaying DWDCVTDWANRHQHCWAL (SEQ ID NO: 249)]	–	binds	–
Ac-GDSFCVTYIGTWETVCKRSDPGGGK(fluorescein)-NH2 (disulfide 5-16 (inferred)) [DX-1089, Ac-GDSFCVTYIGTWETVCKRSDPGGGK-NH2]	> 10	–	–
FRNCEPWMLRFGCNPR (not fully specified (bridges); cysteine pairing not given here, Whole phage in the ELISA; not shown: protein III of M13 phage; the display peptide stands at its amino terminus) [phage isolate displaying FRNCEPWMLRFGCNPR (SEQ ID NO: 244)]	–	binds	–
FKICDQWFCLMP (not fully specified (bridges); cysteine pairing not given here, Whole phage in the ELISA; not shown: protein III of M13 phage; the display peptide stands at its amino terminus) [phage isolate displaying FKICDQWFCLMP (SEQ ID NO: 240)]	–	binds	–
